T1: Puumala virus (PUUV) glycoproteins Gn and Gc displayed on Expi293F cells (full-length M segment, plasmid … (Puumala virus))
T1 chain 1: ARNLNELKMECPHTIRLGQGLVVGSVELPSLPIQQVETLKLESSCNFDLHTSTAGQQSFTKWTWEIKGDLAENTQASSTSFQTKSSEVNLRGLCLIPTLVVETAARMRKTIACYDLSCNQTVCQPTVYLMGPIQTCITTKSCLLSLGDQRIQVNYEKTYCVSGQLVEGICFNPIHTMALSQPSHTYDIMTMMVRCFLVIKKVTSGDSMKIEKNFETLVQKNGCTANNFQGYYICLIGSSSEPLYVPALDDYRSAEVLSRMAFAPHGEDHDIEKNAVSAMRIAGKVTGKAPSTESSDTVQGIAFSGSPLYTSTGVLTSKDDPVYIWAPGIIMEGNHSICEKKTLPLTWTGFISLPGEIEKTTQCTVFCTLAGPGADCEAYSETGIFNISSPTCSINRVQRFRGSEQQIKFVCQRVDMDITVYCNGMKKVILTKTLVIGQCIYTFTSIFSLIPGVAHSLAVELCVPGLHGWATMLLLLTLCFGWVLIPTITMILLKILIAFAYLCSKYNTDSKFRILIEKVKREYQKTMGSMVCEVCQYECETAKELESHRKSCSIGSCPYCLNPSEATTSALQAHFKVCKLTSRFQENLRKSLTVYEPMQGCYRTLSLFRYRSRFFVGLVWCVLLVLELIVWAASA
T1 chain 2: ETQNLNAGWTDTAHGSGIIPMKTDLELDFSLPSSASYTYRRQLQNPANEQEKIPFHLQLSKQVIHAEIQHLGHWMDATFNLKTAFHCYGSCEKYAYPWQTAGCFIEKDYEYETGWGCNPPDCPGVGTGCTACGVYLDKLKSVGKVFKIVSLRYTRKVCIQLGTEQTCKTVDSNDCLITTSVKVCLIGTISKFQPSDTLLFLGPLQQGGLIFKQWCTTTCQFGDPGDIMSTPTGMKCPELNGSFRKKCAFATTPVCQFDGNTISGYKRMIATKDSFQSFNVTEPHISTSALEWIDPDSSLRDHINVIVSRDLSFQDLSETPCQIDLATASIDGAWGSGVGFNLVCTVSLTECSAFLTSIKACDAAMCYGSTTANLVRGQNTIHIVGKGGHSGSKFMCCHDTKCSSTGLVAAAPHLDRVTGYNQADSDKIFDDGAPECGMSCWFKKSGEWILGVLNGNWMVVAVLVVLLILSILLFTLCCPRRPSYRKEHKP

B1: ANDV-5 (antibody, V domains shown)
VH: QVQLLQSGAEVKKPGSSVRVSCQSSGDIYNYYGISWVRQAPGQGLEWMGGIIPVYGRPNYVQKFRGRVTFTVDKSTSTAYMELSTLRADDTAVYYCARDTARSHYFGSGNDYGMDVWGQGTTVIVSS
VL: DIVMTQSPLSLPVTPGEPASISCRSSQSLLHSNGFNFVDWYLQKPGQSPQLLIYLGSTRASGVPDRFSGSGSGTDFTLEISRVEAEDVGVYYCMQALQFPRTFGQGTKLDIK
B2: ANDV-59 (antibody, V domains shown)
VH: QVVLQESGPGLVKPSETLSLTCTVSGGSINNYYWSWIRQPPGKGLEWIGWLYYSGITTFNPSLKSRVTISIDTSKNQVSLNLRSVTAADTAVYYCARVQGSDSSGYYHLKSDWFDPWGQGIPVTVSS
VL: QSVLTQPPSVSAAPGQTVTISCSGSSSNIRHNFVSWYQQLPGTAPKLVIYENNKRPSGIPDRFSGSKSGTSATLGITGLQTGDEADYYCGTWDSSLSAPHWVFGGGTRLTVL
B3: ANDV-2 (antibody, V domains shown)
VH: QVTLKESGPALVKPTQTLTLTCTFSGFSLSTSGMRVSWIRQPPGKALEWLARIDWDDDKFYSTSLKTRLTISKDTSKNQVVLIMTNMDPVDTATYYCARMMVGEGTFDYWGQGTLVTVSS
VL: DIQMTQFPSTLSASVGDRVTITCRASQDISSLLAWYQQKPGKAPKLLIYTASNLEGGVPSRFSGSGSGTEFTLTISSLQPDDFATYYCQQYIRYWTFGQGTKVEIK
B4: ANDV-69 (antibody, V domains shown)
VH: QVHLQESGPGLVKPSETLSLTCAVSGYSISSGYCWGWIRQTPGKGLEWIGSIWHTGTTYYNPSLKSRVTISLDTSKNQFSLKLSSLTAADTAVYYCARAIYDSSGYSPFSGLDIWGQGTTVTISS
VL: QSVLTQPPSVSAAPGQKVTISCSGSSSNIGNNYVSWYQQVPGTAPKLLFYDNNKRPSGIPYRFSGSKSGTSATLAITGLQTGDEADYYCGTWDSSLNLWVFGGGTKLTVL

Legend:
[1] = molecular target: T1, Puumala virus (PUUV) glycoproteins Gn …; assay: flow
[2] = molecular target: Sin Nombre virus (SNV) glycoproteins Gn and Gc displayed on the surface of Expi293F cells transfected with … (Sin Nombre virus); assay: flow

Binder | EC50 [1] [µg/mL] | EC50 [2] [µg/mL]
B1 | 0.148 | 
B2 | 0.123 | 0.0093
B3 |  | 0.011
B4 | 0.541 | 

— patent publication US20220380442A1 (published 2022)
